Molecular target: Human Herpes Simplex Virus glycoprotein D (Human Herpes Simplex Virus) (UniProt Q69091)
Assay: differential scanning calorimetry; peak height of the DSC thermogram of the pure protein compared with a DNA hairpin standard curve; ratio of the calorimetric concentration to the UV-Vis or dry-weight concentration read as stoichiometry; 150 mM NaCl, 10 mM potassium phosphate, 15 mM sodium citrate, pH 7.4; heating about 1°C/min

“Human Herpes Simplex Virus glycoprotein D (from UniProt Q69091 26-394) (natural protein)” showed a factor of the transition heat capacity over the average of the other molecules of 2.2 fold, a percent of dimers in the sample of 35% and a percent of trimers in the sample of 65%. It also gave a stoichiometry N of 2.65.
